In US20160310583A1 (SUMITOMO DAINIPPON PHARMA, published 2016):
Like-named read-outs stand apart in the source and are kept apart here.

Columns and labels:
Experiment in all cases: MHC class I stabilization on T2-A24 cells, flow cytometry, 100 ug/mL peptide
HLA-A*02:01 [1] = biological target: T1, HLA-A*02:01 (human)
T1 construct: whole, on cells; MHC class I molecule, empty until peptide is added; detected with FITC anti-HLA-A02 antibody BB7.2

HLA-A*24:02 [2] = biological target: T2, HLA-A*24:02 (human)
T2 construct: whole, on cells; MHC class I molecule, empty until peptide is added; detected with FITC anti-HLA-A24 antibody 17A10

HLA-A*02:01 [3] = biological target: T1, HLA-A*02:01; remark: listed apart in the source
HLA-A*24:02 [4] = biological target: T2, HLA-A*24:02; remark: listed apart in the source

Binder | MFI (solvent ratio) (HLA-A*02:01 [1]) | MFI (solvent ratio) (HLA-A*24:02 [2]) | MFI (solvent ratio) (HLA-A*02:01 [3]) | MFI (solvent ratio) (HLA-A*24:02 [4])
SYMWSFEKAHL [FAM83B-derived peptide F245_11] | ≥ 1.5 ratio to solvent | ≥ 1.5 ratio to solvent | 1.5 ratio to solvent | 2.9 ratio to solvent
HLLTIKETI [FAM83B-derived peptide F131_9] | ≥ 1.5 ratio to solvent | ≥ 1.5 ratio to solvent | 1.5 ratio to solvent | 2.4 ratio to solvent
KPLPESIPKL [FAM83B-derived peptide F593_10] | ≥ 1.5 ratio to solvent | ≥ 1.5 ratio to solvent | 1.9 ratio to solvent | 3.5 ratio to solvent
WYRVAIDILI [FAM83B-derived peptide F27_10] | – | ≥ 1.5 ratio to solvent | 1.2 ratio to solvent | 3.2 ratio to solvent
NYIEPHYKEW [FAM83B-derived peptide F18_10] | – | ≥ 1.5 ratio to solvent | 1 ratio to solvent | 3.2 ratio to solvent
KVIALVMDI [FAM83B-derived peptide F148_9] | ≥ 1.5 ratio to solvent | ≥ 1.5 ratio to solvent | 2.4 ratio to solvent | 1.6 ratio to solvent
FLAEEEINYIL [FAM83B-derived peptide F55_11] | ≥ 1.5 ratio to solvent | – | 3.6 ratio to solvent | 1 ratio to solvent
SMVQIITGQLV [FAM83B-derived peptide F256_11] | ≥ 1.5 ratio to solvent | – | 3.2 ratio to solvent | 1.1 ratio to solvent
SYFKNRGIYTL [FAM83B-derived peptide F335_11] | – | ≥ 1.5 ratio to solvent | 1 ratio to solvent | 2.3 ratio to solvent
TYQHSVSSLASV [FAM83B-derived peptide F305_12] | ≥ 1.5 ratio to solvent | ≥ 1.5 ratio to solvent | 2 ratio to solvent | 3.1 ratio to solvent
KVIALVMDIF [FAM83B-derived peptide F148_10] | – | ≥ 1.5 ratio to solvent | 1.1 ratio to solvent | 2.6 ratio to solvent
HGLEAYQEFLV [FAM83B-derived peptide F38_11] | ≥ 1.5 ratio to solvent | ≥ 1.5 ratio to solvent | 2.5 ratio to solvent | 3.1 ratio to solvent
FLQQRMPTL [FAM83B-derived peptide F476_9] | ≥ 1.5 ratio to solvent | ≥ 1.5 ratio to solvent | 2 ratio to solvent | 2.6 ratio to solvent
FLAEEEINYI [FAM83B-derived peptide F55_10] | ≥ 1.5 ratio to solvent | – | 3.5 ratio to solvent | 1.2 ratio to solvent
TLSSGTYWPV [FAM83B-derived peptide F86_10] | ≥ 1.5 ratio to solvent | – | 3 ratio to solvent | 1 ratio to solvent
PFCKIESSI [FAM83B-derived peptide F939_9] | – | ≥ 1.5 ratio to solvent | 0.9 ratio to solvent | 2.7 ratio to solvent
FLVQERVSDFL [FAM83B-derived peptide F46_11] | – | ≥ 1.5 ratio to solvent | – | 1.6 ratio to solvent
LVQERVSDFL [FAM83B-derived peptide F47_10] | – | ≥ 1.5 ratio to solvent | 1.1 ratio to solvent | 1.5 ratio to solvent
YILKNVQKV [FAM83B-derived peptide F63_9] | ≥ 1.5 ratio to solvent | – | 3.3 ratio to solvent | 1 ratio to solvent
SFNGTDNHIRF [FAM83B-derived peptide F466_11] | – | ≥ 1.5 ratio to solvent | 1 ratio to solvent | 1.7 ratio to solvent
VYILLDESNF [FAM83B-derived peptide F176_10] | – | ≥ 1.5 ratio to solvent | 1.2 ratio to solvent | 2.7 ratio to solvent

Binder | MFI (solvent ratio) (HLA-A*02:01 [1]) | MFI (solvent ratio) (HLA-A*24:02 [2]) | MFI (solvent ratio) (HLA-A*02:01 [3]) | MFI (solvent ratio) (HLA-A*24:02 [4])
VMDIFTDVDIF [FAM83B-derived peptide F153_11] | – | ≥ 1.5 ratio to solvent | 0.9 ratio to solvent | 2 ratio to solvent
RFLQQRMPTL [FAM83B-derived peptide F475_10] | ≥ 1.5 ratio to solvent | ≥ 1.5 ratio to solvent | 1.9 ratio to solvent | 3 ratio to solvent
VMYGSYSYMW [FAM83B-derived peptide F239_10] | – | ≥ 1.5 ratio to solvent | 1.1 ratio to solvent | 2.2 ratio to solvent
RLCSSSDTLV [FAM83B-derived peptide F799_10] | ≥ 1.5 ratio to solvent | – | 2.1 ratio to solvent | 1.2 ratio to solvent
SYGRSSPLL [FAM83B-derived peptide F971_9] | – | ≥ 1.5 ratio to solvent | 1.1 ratio to solvent | 1.8 ratio to solvent
LLDESNFNHFL [FAM83B-derived peptide F179_11] | ≥ 1.5 ratio to solvent | – | 1.6 ratio to solvent | 1.1 ratio to solvent
MVQIITGQLV [FAM83B-derived peptide F257_10] | ≥ 1.5 ratio to solvent | – | 1.9 ratio to solvent | 1.1 ratio to solvent
PLPESIPKL [FAM83B-derived peptide F594_9] | – | ≥ 1.5 ratio to solvent | – | 3.8 ratio to solvent
NLDLGWPYV [FAM83B-derived peptide F103_9] | ≥ 1.5 ratio to solvent | – | 2.6 ratio to solvent | 1.1 ratio to solvent
SYQPNENKF (also called FAM83B peptide) [FAM83B-derived peptide SF_9] | – | ≥ 1.5 ratio to solvent | 1 ratio to solvent | 2.3 ratio to solvent
VIALVMDIFT [FAM83B-derived peptide F149_10] | – | ≥ 1.5 ratio to solvent | 1.3 ratio to solvent | 2.1 ratio to solvent
FLLVDCQKVM [FAM83B-derived peptide F231_10] | ≥ 1.5 ratio to solvent | – | 2 ratio to solvent | 1 ratio to solvent
LYARSCVPSSF [FAM83B-derived peptide F276_11] | – | ≥ 1.5 ratio to solvent | 1.2 ratio to solvent | 3.4 ratio to solvent
HYKEWYRVAI [FAM83B-derived peptide F23_10] | ≥ 1.5 ratio to solvent | ≥ 1.5 ratio to solvent | 2 ratio to solvent | 3 ratio to solvent
VMYGSYSYMWSF [FAM83B-derived peptide F239_12] | ≥ 1.5 ratio to solvent | ≥ 1.5 ratio to solvent | 1.6 ratio to solvent | 4 ratio to solvent
GLLGGTHIDLL [FAM83B-derived peptide F114_11] | ≥ 1.5 ratio to solvent | – | 2.9 ratio to solvent | 1.1 ratio to solvent
GWPYVMPGLL [FAM83B-derived peptide F107_10] | – | ≥ 1.5 ratio to solvent | 1 ratio to solvent | 2.7 ratio to solvent
TYQHSVSSL [FAM83B-derived peptide F305_9] | – | ≥ 1.5 ratio to solvent | 1.1 ratio to solvent | 2.4 ratio to solvent
NYILKNVQKV [FAM83B-derived peptide F62_10] | ≥ 1.5 ratio to solvent | ≥ 1.5 ratio to solvent | 2.9 ratio to solvent | 1.6 ratio to solvent
ALVMDIFTDV [FAM83B-derived peptide F151_10] | ≥ 1.5 ratio to solvent | – | 3.4 ratio to solvent | 1 ratio to solvent
KVMYGSYSYMWSF [FAM83B-derived peptide F238_13] | – | ≥ 1.5 ratio to solvent | 1.2 ratio to solvent | 5.1 ratio to solvent
